{"source": "patent US7569341", "key": {"[1]": {"molecular_target": "mouse IgG whole molecules (Pierce) (mouse)", "assay": "ELISA on mouse IgG-coated plate, A405, against controls A and B"}, "[2]": {"molecular_target": "bovine IgG whole molecules (reagent grade, Sigma) (bovine)", "assay": "sandwich ELISA; capture AM on A-DNA well; IgG mixture; detected with aB-AP"}, "[3]": {"molecular_target": "dog IgG whole molecules (reagent grade, Sigma) (dog)", "assay": "sandwich ELISA; capture AM on A-DNA well; IgG mixture; detected with aD-AP"}, "[4]": {"molecular_target": "mouse IgG whole molecules (Pierce) (mouse)", "assay": "sandwich ELISA; capture AM on A-DNA well; IgG mixture; detected with aM-AP"}, "[5]": {"molecular_target": "bovine IgG whole molecules (reagent grade, Sigma) (bovine)", "assay": "sandwich ELISA; capture BM on B-DNA well; IgG mixture; detected with aB-AP"}, "[6]": {"molecular_target": "dog IgG whole molecules (reagent grade, Sigma) (dog)", "assay": "sandwich ELISA; capture BM on B-DNA well; IgG mixture; detected with aD-AP"}, "[7]": {"molecular_target": "mouse IgG whole molecules (Pierce) (mouse)", "assay": "sandwich ELISA; capture BM on B-DNA well; IgG mixture; detected with aM-AP"}, "[8]": {"molecular_target": "bovine IgG whole molecules (reagent grade, Sigma) (bovine)", "assay": "sandwich ELISA; capture CM on C-DNA well; IgG mixture; detected with aB-AP"}, "[9]": {"molecular_target": "dog IgG whole molecules (reagent grade, Sigma) (dog)", "assay": "sandwich ELISA; capture CM on C-DNA well; IgG mixture; detected with aD-AP"}, "[10]": {"molecular_target": "mouse IgG whole molecules (Pierce) (mouse)", "assay": "sandwich ELISA; capture CM on C-DNA well; IgG mixture; detected with aM-AP"}, "[11]": {"molecular_target": "bovine IgG whole molecules (reagent grade, Sigma) (bovine)", "assay": "sandwich ELISA; biotinylated antibody directly on streptavidin well; IgG mixture; detected with aB-AP"}, "[12]": {"molecular_target": "mouse IgG whole molecules (Pierce) (mouse)", "assay": "sandwich ELISA; biotinylated antibody directly on streptavidin well; IgG mixture; detected with aM-AP"}, "[13]": {"molecular_target": "bovine IgG whole molecules (reagent grade, Sigma) (bovine)", "assay": "sandwich ELISA; capture AD on A-DNA well; IgG mixture; detected with aB-AP"}, "[14]": {"molecular_target": "dog IgG whole molecules (reagent grade, Sigma) (dog)", "assay": "sandwich ELISA; capture AD on A-DNA well; IgG mixture; detected with aD-AP"}, "[15]": {"molecular_target": "mouse IgG whole molecules (Pierce) (mouse)", "assay": "sandwich ELISA; capture AD on A-DNA well; IgG mixture; detected with aM-AP"}, "[16]": {"molecular_target": "bovine IgG whole molecules (reagent grade, Sigma) (bovine)", "assay": "sandwich ELISA; capture BD on B-DNA well; IgG mixture; detected with aB-AP"}, "[17]": {"molecular_target": "dog IgG whole molecules (reagent grade, Sigma) (dog)", "assay": "sandwich ELISA; capture BD on B-DNA well; IgG mixture; detected with aD-AP"}, "[18]": {"molecular_target": "mouse IgG whole molecules (Pierce) (mouse)", "assay": "sandwich ELISA; capture BD on B-DNA well; IgG mixture; detected with aM-AP"}, "[19]": {"molecular_target": "bovine IgG whole molecules (reagent grade, Sigma) (bovine)", "assay": "sandwich ELISA; capture CD on C-DNA well; IgG mixture; detected with aB-AP"}, "[20]": {"molecular_target": "dog IgG whole molecules (reagent grade, Sigma) (dog)", "assay": "sandwich ELISA; capture CD on C-DNA well; IgG mixture; detected with aD-AP"}, "[21]": {"molecular_target": "mouse IgG whole molecules (Pierce) (mouse)", "assay": "sandwich ELISA; capture CD on C-DNA well; IgG mixture; detected with aM-AP"}, "[22]": {"molecular_target": "dog IgG whole molecules (reagent grade, Sigma) (dog)", "assay": "sandwich ELISA; biotinylated antibody directly on streptavidin well; IgG mixture; detected with aD-AP"}, "[23]": {"molecular_target": "bovine IgG whole molecules (reagent grade, Sigma) (bovine)", "assay": "sandwich ELISA; capture AB on A-DNA well; IgG mixture; detected with aB-AP"}, "[24]": {"molecular_target": "dog IgG whole molecules (reagent grade, Sigma) (dog)", "assay": "sandwich ELISA; capture AB on A-DNA well; IgG mixture; detected with aD-AP"}, "[25]": {"molecular_target": "mouse IgG whole molecules (Pierce) (mouse)", "assay": "sandwich ELISA; capture AB on A-DNA well; IgG mixture; detected with aM-AP"}, "[26]": {"molecular_target": "bovine IgG whole molecules (reagent grade, Sigma) (bovine)", "assay": "sandwich ELISA; capture BB on B-DNA well; IgG mixture; detected with aB-AP"}, "[27]": {"molecular_target": "dog IgG whole molecules (reagent grade, Sigma) (dog)", "assay": "sandwich ELISA; capture BB on B-DNA well; IgG mixture; detected with aD-AP"}, "[28]": {"molecular_target": "mouse IgG whole molecules (Pierce) (mouse)", "assay": "sandwich ELISA; capture BB on B-DNA well; IgG mixture; detected with aM-AP"}, "[29]": {"molecular_target": "bovine IgG whole molecules (reagent grade, Sigma) (bovine)", "assay": "sandwich ELISA; capture CB on C-DNA well; IgG mixture; detected with aB-AP"}, "[30]": {"molecular_target": "dog IgG whole molecules (reagent grade, Sigma) (dog)", "assay": "sandwich ELISA; capture CB on C-DNA well; IgG mixture; detected with aD-AP"}, "[31]": {"molecular_target": "mouse IgG whole molecules (Pierce) (mouse)", "assay": "sandwich ELISA; capture CB on C-DNA well; IgG mixture; detected with aM-AP"}}, "note": "“And” between values parts separate entries of the source, which are not always exact repeats. Equal values may be shown once."}
{"substance": "biotinylated rabbit anti-mouse IgG (#B-8520), polyclonal rabbit IgG (antibody)", "values": [{"measurement": "signal-to-noise ratio", "setting": "[1]", "value": 60}, {"measurement": "absorbance reading (405 nm)", "setting": "[2]", "value": 45}, {"measurement": "absorbance reading (405 nm)", "setting": "[3]", "value": 8}, {"measurement": "absorbance reading (405 nm)", "setting": "[4]", "value": 533}, {"measurement": "absorbance reading (405 nm)", "setting": "[5]", "value": 30}, {"measurement": "absorbance reading (405 nm)", "setting": "[6]", "value": 4}, {"measurement": "absorbance reading (405 nm)", "setting": "[7]", "value": 346}, {"measurement": "absorbance reading (405 nm)", "setting": "[8]", "value": 8}, {"measurement": "absorbance reading (405 nm)", "setting": "[9]", "value": 5}, {"measurement": "absorbance reading (405 nm)", "setting": "[10]", "value": 49}, {"measurement": "absorbance reading (405 nm)", "setting": "[11]", "value": "15 and 31 and 19"}, {"measurement": "absorbance reading (405 nm)", "setting": "[12]", "value": "177 and 189 and 186"}]}
{"substance": "biotinylated rabbit anti-dog IgG (#B-7640), polyclonal rabbit IgG (antibody)", "values": [{"measurement": "absorbance reading (405 nm)", "setting": "[13]", "value": 84}, {"measurement": "absorbance reading (405 nm)", "setting": "[14]", "value": 673}, {"measurement": "absorbance reading (405 nm)", "setting": "[15]", "value": 73}, {"measurement": "absorbance reading (405 nm)", "setting": "[16]", "value": 57}, {"measurement": "absorbance reading (405 nm)", "setting": "[17]", "value": 481}, {"measurement": "absorbance reading (405 nm)", "setting": "[18]", "value": 31}, {"measurement": "absorbance reading (405 nm)", "setting": "[19]", "value": 23}, {"measurement": "absorbance reading (405 nm)", "setting": "[20]", "value": 102}, {"measurement": "absorbance reading (405 nm)", "setting": "[21]", "value": 26}, {"measurement": "absorbance reading (405 nm)", "setting": "[11]", "value": "28 and 26 and 75"}, {"measurement": "absorbance reading (405 nm)", "setting": "[22]", "value": "334 and 413 and 941"}, {"measurement": "absorbance reading (405 nm)", "setting": "[12]", "value": "20 and 24 and 35"}]}
{"substance": "biotinylated rabbit anti-bovine IgG (#B-7140), polyclonal rabbit IgG (antibody)", "values": [{"measurement": "absorbance reading (405 nm)", "setting": "[23]", "value": 729}, {"measurement": "absorbance reading (405 nm)", "setting": "[24]", "value": 20}, {"measurement": "absorbance reading (405 nm)", "setting": "[25]", "value": 146}, {"measurement": "absorbance reading (405 nm)", "setting": "[26]", "value": 591}, {"measurement": "absorbance reading (405 nm)", "setting": "[27]", "value": 9}, {"measurement": "absorbance reading (405 nm)", "setting": "[28]", "value": 153}, {"measurement": "absorbance reading (405 nm)", "setting": "[29]", "value": 90}, {"measurement": "absorbance reading (405 nm)", "setting": "[30]", "value": 9}, {"measurement": "absorbance reading (405 nm)", "setting": "[31]", "value": 24}, {"measurement": "absorbance reading (405 nm)", "setting": "[11]", "value": "279 and 319 and 265"}, {"measurement": "absorbance reading (405 nm)", "setting": "[12]", "value": "50 and 64 and 61"}]}
